Test: soluble on expression in E. coli; label from the status in PepcDB or PDB records
In the case of “MGTSGCTVDTSRRDKVRMALPHAELEQARMDNLTRHVAQNFLREPQVVGEPNDSGVAVSQLLFEKSDTVVISDREIHHQLRAASIAVVAHAPMLLMDDTDRDAVQAEIGRLGARYILAIGDVGLPKTTGNVKVIPDSGSLTALGKLTSLQFRTQRIDVSNALSAVSRLDGTHPMWLLTNRQEKVQSSPSDGEVSAFPVQSRRDAGAAPQVIATQESGIAAVATARSYGASVTVMRFPDPRLNVESMRAVAGLSDQPLIALGSQFGTSQQLSERIELGERAPLALPHKTGLVFALRTLRARYLNDSDVSEHVDIPYGANYVRTIAHPLSSQDQQDWKAWADAINAQDGFVFIEIDAVHRDADEILDSVEEIVSQPSIGVILRNAAQVCARSPQSRQRIADRLMHWNSEVINHNGDQLGVVLEGVDILRGGVCGISPQELMGLGLAILPARGEHLGGDATVNSQLYWDDWFVAERESFQPTGTLRSPRLGLIIRD”, the “soluble on expression in E. coli” value is reported as “not soluble”.
In the case of “MPRYCIVNADDFGYSKGVNYGILEAFQHGVVTSATLMANMPAAEHAARLAKEHPELGVGIHFVLTCGRPLADVPSLVNENGEFPRRGEALAGARRSDIERELAAQLERVFSLGLSPTHIDSHHHVHEHPNVFPVVEQLAERYRLPIRPVRTTRPHRLATVDVFFPDFYGDGLTKDHFLTLIDRIGDGQTAEVMCHPAYMDAPLAAGSSYCRQRIEELAVLTDPALSKEIAERGVQLITYREFYQL”, the “soluble on expression in E. coli” value is reported as “not soluble”.
In the case of “MTSQTAFDLIFRNTLLRSSAAPVDIGVKGGRIAAIEPGLTCEAVEVDVGGHLALPGFVDTHIHLDKACLLGRCGHNHGSVSEAIRAVAGMKKDFTVEDVYARGARVLERAIVHGTTRMRTHVEIDPRIGLRGFEAVKALKRDYAWAIDLSLCVFPQEGLTNDPGAEDLLIQALRDGGETIGGCPYMDTDPNTHLERIFNLAQEFDVDVDLHLDFDLDPSWWHLDEVCRQTERRNYGGRVAVGHATKLSALPPEPLKAATAQLAKAGVAVTVLPATDLYLMGREATHNAPRGLTLAHKLAGDGVLCSVATNNVLNPFTPFGDASLLRMANFYANVAHASVSDFDICLDLVTELPARLMNLGDYGIKVGNPADLIVLDTQDSRFAIAELPDVMMGFKAGRQTFARQRPTLFSPGR”, the “soluble on expression in E. coli” value is reported as “soluble”.
In the case of “MVMPESHIHNIPMEQCVLVALMTFALSYELIAQDLDEGCFYPERHKQIYNAIVELANENQPYDVVMVEQRLKSKNLLHVLGGEQYLKIMLAEAPSSFHSMEPYITQLKKLKAHRQVEWLGQRISSMAQDTTQPDVFAEAENILGQVDNQEQSDQGMSFEAALDMALTEMIEKAEAKDKQQFTGVKFNLKHLDELLGTVQKGHFCVVGGRPGSGKSTLAQMLALDTASSFGKGVLFISAEMDQSTLANRMISALGLIPYHNIHNAELYNGLMKDYADAKAAYQRLPIWIQPKQKPSLSEVRSYARRAKRRYKELGCIIVDYLQLLRDPSKKDRFQEVSSISRELKSMAKEFECPVIALVQLNREAEKGKRPKASDIKESGQIEQDADQIILVNPLTDPEDSTKPMGITELIVVKNRHGKRGAVRVLDYLETCRFRSVEEQAEP”, the “soluble on expression in E. coli” value is reported as “not soluble”.
In the case of “MGHHHHHHSHMFPQAQESPAAVEVLTQVVHPSAAMASQERAQVAFKKMVQGVLQFAVCDTAAAGQLVKDGVTQVVVSEEGAVHMVAGEGAQIIMQEAQGEHMDLVESDGEISQIIVTEELVQAMVQESSGGFSEGTTHYILTELPPGVQGEPGLYSHTVLETADSQELLQAGATLGTEAGAPSRAEQLASVVIYTQEGSSAAAAIQSQRESSELQEA”, the “soluble on expression in E. coli” value is reported as “not soluble”.
With “MRDRLLAAEKVKAIDWRDDALYLLDQRVLPFEEVWHRYTTAAGVAEAIRTMVVRGAPAIGISAAYGAVLGARARIAEGGDWYPALEEDMQLLADSRPTAVNLFWALNRIRDRLMRVKNGDNPLAALEAEAVAIHLSDREANLTMAQLGADLIRKHQGNLQTVLTHCNTGALATGGFGTALGVIRAAHLEGMIERVYADETRPWLQGSRLTAWELANEGIPVTLNADSAAAHLMRTKGITWVIVGADRITANGDVANKIGTYQLAVAAMHHGVRFMVVAPSSTIDMEMASGDDIIIEERDGRELLEVGGQRVGADVEAFNPVFDVTPADLIDAIVTEKGIVERPDTARMAQLMSRKHLHLEHHHHHH” the “soluble on expression in E. coli” value was “soluble”.
With “MNADEWMTTFRENIAQTWQQPEHYDLYIPAITWHARFAYDKEKTDRYNERPWGGGFGLSRWDEKGNWHGLYAMAFKDSWNKWEPIAGYGWESTWRPLADENFHLGLGFTAGVTARDNWNYIPLPVLLPLASVGYGPVTFQMTYIPGTYNNGNVYFAWMRFQFL” the “soluble on expression in E. coli” value was “soluble”.
For “MGSDKIHHHHHHMTDRVLILGGRGRIGSSVAQDLANHTQAQITITGRSAEFGKAVSLSSGGQVQFLVLDLVEVDKLQNAIANSNLVIHCAGPFHYRDTNVLETCIAQGVNYVDVSDHRSYTSKALNFSEQAAAAGVTAIINTGIFPGISNSMVRQGVEQFDKPENIHLSYLVSGSGGAGITVMRTTFLGLQYPFETWIDGKWQVIKPYSERELVEFPPPYGRSGVYWFDMPETFTLPKAFPSVKTVITKFGSVPDFYNHLTWIAAHIFPKWLMQRRYMIEFLSHVSHSMTDVTNNFSGIGVAVRSEVTGQKDGKTAVYCSTVVHENTALASGCGTGSIAQLLLEGKLKKPGVFAVEEALPTDLFEEVMQSRGIKINHSWL”, the “soluble on expression in E. coli” value was “not soluble”.
With “MSRRAGTPTAKKVTQLVNVEEHVEGFRQVREAHRRELIDDYVELISDLIREVGEARQVDMAARLGVSQPTVAKMLKRLATMGLIEMIPWRGVFLTAEGEKLAQESRERHQIVENFLLVLGVSPEIARRDAEGMEHHVSEETLDAFRLFTQKHGAK” the “soluble on expression in E. coli” value was “soluble”.
In the case of “MGSDKIHHHHHHMTTILQLSDLHIGPHNDEKDQKTYDLIHHMMTHYQPDITVLTGDQIWSEGVIDSGRVYKKLMEYLNRYDTQIATTFGNHDTEGHLKRSDLRAIEDQYSTNYVQKNHSLIVDDKEAYTIEVVNNDTVTHVLYVIDGGDYNPFGIGDYDFIRPEHVNWLRETHQAYQTQFQHNFQHNLLFTHIPLQEYREVENIGEYHGIFNEPIACSKINSGLFSQMLLNGDIEGMFCGHDHDNDFTINLYGIRLSFGRIGGYNTYGDLQRGARLIELQPDAIYKSKVLEFDDRF”, the “soluble on expression in E. coli” value is reported as “not soluble”.
For “MQILEPQQFATWNEPIEMLYACHSKVKRFCRQLSILPDYLEKHGYTQAVLNDVEQILSYFNRAAPLHHDDEELDFFPQLVKVAPQTQTSIDELEKQHEYLHENWNALSVQLEELISEQRQDIDKHLIERFIQGYDRHIALEEPLFEMGRECLSADILTEMGKHMSARRQVKE”, the “soluble on expression in E. coli” value was “not soluble”.
In the case of “MSFHVRFTLEAKADIERLYRFLAEHDFDVAERTLETIDSAWSLLEQFPFSCRKIDDANPFLREFIISFGNSGYVVLFEIEDSNTVTVLAVRHQLEDDYY”, the “soluble on expression in E. coli” value is reported as “soluble”.
For “MGSDKIHHHHHHMMSNTAATVNHSQKVDLFIVGGGMIGSALAARLAPSGMRIALLENHQPAAFDPSSPPDLRVSALSPASIDFLEQAQAWPAIQTMRTAPFKRMQVWENRQDHGTMFDAAEVDAPWLGHIVENRLVQLACLEIVEGYDNVTLLCPGEIGQIAYRPEGSHIRLNSGQIFEATLLIGADGANSQVRKAAGIALDSQQYPMHALVATVAIQGGERDITWQRFTPDGPQSLLPLPGDYASLVWYHRPSEVRRLLTLDDDALLDAFRQHFPAVLPEITGLVRRGSFPLARSHAQAYVRPGVALIGDAAHTIHPLAGQGVNLGFQDAAVLSETLLRAWQTGADLAALPHLQRYERQRKLANLVMQRAMDAFSYGFSNDVAPLRLLRNLGLRFADHTGPIKRQVIRYALGLGPQPSLPLPSGLSKLLP”, the “soluble on expression in E. coli” value was “not soluble”.
With “MAITRESKNGEEFVGEVTFYEGVNMNVVVNFFTGLDHYEYAKLRFAHTAHTPPLIRASSTSASASASTSTSSSRPKKHYLEKNMEHLLKKLDILAFKQTIIESRSPTSDSIHHQDFVSNTDTAEYDDDDTKFF” the “soluble on expression in E. coli” value was “not soluble”.
With “MAHHHHHHMRSSQFLLSGLRRTAILMTISDEYIPRAFPVKSTTGLAGIAVEPLWKPKLLAAASELQAFLTSSDIPPESTYYNIAMTLVKRVNHGIKECQDDWCTLEKRYFWGWPVEYILQVTWRELETAQKWNEWRFWELDPEQVKKVAREDQNIGREGLGYNSPWEQVVREDFDKRKKALTQEEMAELKRMDTERMARETAAYKERKDRIRDDLEKARGDMLKKFLNKRFAVDKDLQRMQPGKRYSGKTADDLIAELKSSVENNPQKSDLGK” the “soluble on expression in E. coli” value was “not soluble”.
With “MGSDKIHHHHHHAQSLKDLLNKDNISKVVNAITGTPETIDMTGTWTYSGSAVEFESDNLLMKAGGAAAATMAENKLNEQLSKVGIKEGQMSFTFNADSTFTSTVGKKKLSGTYSYNASTKQVDLKYLKLLNLHAKVNCTSNSMDLLFNSDKLLKLMTFLGSKTNSTALKTVSSLAENYDGMMLGFGLKK” the “soluble on expression in E. coli” value was “not soluble”.
With “MAPAPRFSAEEQERLIICAAIKAIEESSLLDFSMSAIAKLAGLSMGSVYKFVQCKEDVLIALATRMYQERQSVFKKVLALPLTTPERIIATSLLDFSKVQMYNFDNQLESIVNTEAMMKRCSERWLTQMIACGERCQTMFQQFLQNAADSGELTSGSRDIEEINLGTWSLSVGYFQTVRLHQCWHNDLDENIDGINDEENEKNTLVLAADNAHIRTMKRLVNTYDWQQKISDDDIEKVCLHLADAALR” the “soluble on expression in E. coli” value was “not soluble”.
For “MTIDTDLDRTPAASSENPVEARRTQARAWFEGLRDRICAEIETLEREAPAELFPGEPATFTYKPWQRKTGAGGGVGGFLSNGRLFEKIGIHTSSANGKLTPEMAKNVPGDGSLDYVSTSISLIMHPRSPRVPTVHMNTRFLSTSQGWFGGGADLTPMLPEQRSQDAEDAVIFHTAMKHACDAHDPAYYDKFKPWADTYFFLPHRGVARGVGGIFFDYLNSGDFDRDFAFTRAVGSALLDVYPKIVRKRMIEPWTDAERAQQLACRGLYVEFNLLYDRGTMFGLQTGGNTETIMSSMPPLVSWSMAGDPLEHHHHHH”, the “soluble on expression in E. coli” value was “not soluble”.
In the case of “MRALRLLTRQEYQNTVNDLLGLSENLVHLLPEENRVDGFDNNVATNLVTSIRLEAFLTQAEALAAKAVQQNWNALLPCTQQDLEHHHHHH”, the “soluble on expression in E. coli” value is reported as “not soluble”.
With “MKLVFYGAGNMAQAIFTGIINSNNLNANDIYLTNKSNEQALKSFAEKLGVNYSYDDEALLKDADYVFLGTKPHDFENLANRIREHITNDNRFISIMAGLSIDYIRQQLNTNNPLARIMPNTNAQVGHSVTGISFSNNFDPKSKNEVDELINAFGSVIEVSEEHLHQVTAITGSGPAFLYHVFEQYVKAGTELGLERNQVEESIRNLIIGTSKMIERSDLSMSQLRKNITSKGGTTQAGLDALSQYDIVSMFEDCLGAAVNRSMELSHKEDELEHHHHHH” the “soluble on expression in E. coli” value was “soluble”.
In the case of “MKVEIEPQTLRYQPKEIRETKRPTIAYEHPNALTYLKSMKENIIRFANKKSLYTQHDEYIKNVFMDERVNLKYHCESIVSYIAEAFIHYSVWDHSHAYYPGRPSQQTARTDALEGTSRTLPTLAAWLHANGRSNTIITGLNQQPILVPEILRKAFLAGTNPQHKGYWGTLHHCDQRVCEGADLALALWMSKEWVWDCFSIDEKCQIITWFKQVNQCETVDNNWHLFVLTVQIVLKALTGEDEVQYDKYERVKEFYVGDGWFRDGAKGNYDYYNAWAFHYSLYWFTQIDVDFDSTFINNALSDFVGNYRYFFGKEGFPFFGRSACYRLAAAAPLLAAVDLQSDKITIGEAKRAFHCNLKYFISNGALKAGLPTQGLFDEDVRLVDNYSGPASSLWSLRALNIALFCGEKINLWQAEEAPLAIEQGNFELDISAINMKILGVYETQEVIAIFKNEYTQDQSPLSRRLLAPSRWEQTIEKITGRANRPKNNLLRKGITCYSSKMESFFLEHHHHHH”, the “soluble on expression in E. coli” value is reported as “not soluble”.
In the case of “AAIRHITTGTYIARIREEYQQTEVKPELQPMKEALARMTDRAEALIAFVTEQKDQELLDFQARRLVEMTAHAVFGHLLMLAANDDDSFRQSAEVYLRYGQAEQEKIDSYVRAFRPEELTFYSRCSRPE”, the “soluble on expression in E. coli” value is reported as “soluble”.
